Among the data in a protein production outcome set (Wang et al. 2014) are protein production values, retold here.

This data set in a line: label from the status in PepcDB records.
“MKIRTTLTLQYAGITAAVFFAFVIAVYYVSEHSRSNAFFRNLQSEAITKAHLFLNNQVDAKTMQSIYLNNQKFINEVEVAVYTTDFKILYHDALQNDIVKETPEMVKRILKRKNISFYVDEYQAIGLVYPFEGQYYIVTAAAYDGYGYANRDALRNMLILLFIGGLSVLAIVGYILSRSTLKPIRNIVREAEKITASHIDKRLPVKNEQDELGELSITFNALLERLEKSFNSQKMFVSNVSHELRTPMAALTAELDLALLKERTSGQYQAAIGNALQDSRRIINLIDGLLNLAKADYQSEQITMEEVRLDELLLDARELVLKAHPDYHIELVFEQEAEEDNVLTVIGNSYLLTTAFVNLVENNCKYSSNRTSSVLIAYWEQWAIIRLSDNGVGMSDADKENLFKLFYRGENKNIAPGNGIGMVLTQKIIHLHKGELTVSSHKDEGTTFVVKLPHI”: the protein production entry is “failed”.

For the sequence “MKIRVDDITDQPKILSFQEPSEAFPSLAELQATGESEFLSPLMVELAVSKEYGHIRVKGSVAVKIRFVCSRCLVPFDADISSAFTMFYSEGSRIDSDEDEIELAEEDLVSVFYEGDEIDFAPEIAEQVIMELPLKPLCGEGCKGLCVTCGADLNEGECGCERTTFNVKFSALKNFKVEKLEHHHHHH”, the protein production entry is “not failed”.

Regarding “MKISIITAVYNDPRVERCLDSVASQQGNFEVEHIVVDSESTDDTVDVIEQYENHIDCLISEPDDGMYDAINKGIEAATGDVIGLLNADDYYQDQRVLHDVASQLAETGADACYGDLVYVDADDDVVRYWKSDEYSRYKLYYGWMPPHPTFFVRHEIYERHGGFDLSYEISADYELMIRLLLNTDISVTYLDRVLVRMELGGMSNQSIENMLTVIEDMYRGWKKHNRLGRFVAPFLHPVEKVPQFIRSPPGEKEGTLEHHHHHH”, the protein production result is “failed”.

With “MKITTKGRYGLTITLELAKRIGDGPISLRSIAQDKNLSEHYLEQLIGPLRNAGIVKSIRGAHGGYVLNGDPEKITAGDIIRTLEGPIVLVESMEDEEAAQRELWTRMRNAVRDVLDQTTLSDLLKHSTDSELTDGYMFYI”, the protein production result was “not failed”.

For the sequence “MKITVIVPTYRRTKDLTRCLESLEKQSRPADEVLVVVRDTDVETWQFLETIAPHSLPLHTTTVRVPGVVAAMNAGLDIAQGDIIAFTDDDAAPHSNWLAQIETHFLAHEQIAGVGGRDWVYHGDRLEDGTCPVVGQVHWFGRVIGNHHIGIGKPREVDVLKGVNMSFRRSAVHGLRFDQRMLGTGAQVHFEVAFCLALKRAGWKLIYDPQIGVNHYLEHHHHHH”, the protein production result is reported as “failed”.

As to “MKKGTVLNSEISSVISRLGHTDTLVVCDAGLPIPNSTARIDMALTQGVPSFMQVVDVVTREMQVEAAILATEIKQQNPQLHETLLTHLEQLQQHQGNTIKISYTTHEQFKKLTADSQAVIRSGECSPYANVILCAGVTF”, the protein production entry was “not failed”.

Regarding “MKKIATATIATAGIATFGLAHQDADAAENNNGYNPNDPYSYSYTYTIDQQGNYHYEWQGNWSPSQAQQGGQQNTGNQAVNNTQSNNNYNYNYNNNQSNQNTQSYTANNNAGGGLGASYSTSDRNVKVTTQNAPTTQSTSSNASSSSSSEALAGKSSGGSNLYTAGQCTYYVYDKVGGKIGSTWGNANNWATAAAADGYTVNNTPKAGAVMQTSQGAYGHVAYVESVNDDGSVKVSEMNYNGGPGVVSSRTISAGQAGSYNYIS”, the protein production entry is recorded as “failed”.

Consider “MKKIKALALFSGGLDSLLSMKLLIDQGIEVTALHFNIGFGGNKDKREYFENATAQIGAKLLVCDIREQFFNDVLFKPKYGYGKYFNPCIDCHANMFRNAFYKMLELNADFVLSGEVLGQRPKSQRKEALNQVRKLVREVGEEARFDPVLDRTQAGGKKPQFLDELLLRPMSAKLLEPTFMEKKGFVDREKLLDVSGRGRSRQLQMIKDYGLKYYEKPGGGCLLTDIQVSNKIKNLKEYREMVFEDSVIVKNGRYFVLPHNARLVVARNEEENHKLDIQHPLMDKIELLNCKGPLSLVDKNASKEDKELAGRIALGYAKTLKNQAYLIQIGDEKRELYPLDKENAREYLFA”, for which the protein production result is “failed”.

“MKKILALILIIYSSSVFSHFSHFEPRIIHLYQDNQDTIILMRMPLPLILLDENWKGIDSKQNIPYTNKVNNSGYLIDPEKITKNLDDFKKSITPGYTIKKNGVVQNYHIESINIFNSDDRKPFSSLKTAEENFTSDVTIRPSATKLFDAGIDIKLRISNTSVINDDISISSILGDKFNAINKLANIINLHRDIANESVTTTLGILDYSSTHLPSMTQQLINGFSDGFIHILIGLDHVLFVLLLFYSAASFLKLLSLATAFTFGHSFSLFFGDNIAIASPIFIPGIELLIALTIAFTAIALLLKKAQHLGTTPLLVIGVIHGFGFSFVFNELEKEGAQTSITNLLSFNFGIEAGQLFIYALAFTMTILIKKQTVLVKKLPYYVSVCALVISAYWVVTRSMPLFDYIVI”: the protein production result is given as “failed”.

On to “MKKILFCLPLLLLALQSCEIEDEYMYDKGLYTIDWDAAADSSSVTLIDRFWNTEENYFNYGNDGSIKDFHYWPQAHAMDVMIDAYNRTGDSKYSDLFDKWYVGIKAKNGGSYWNNFYDDMEWIALTMIRLYEVTDENKYLETSQEMWNEIKTGWNDYAGGGIAWTHDQLWSKNACSNGPAALIAARLYRINGNQEDLDWAVNIYKWERENLFNPATGAIYDNVNGETGELSTLSLSYNQGTFLGAAYELYKITGEESYLKDARKAANFAISNSSMIDTGNNLLRDEGDGDGGLFKGIFMRYYVQLIMEPNLDPIYKKKFITFFNNNAEILWRKGINKLDLLYNTNWAMNNSGNNHLTTQTSGCTLIEAKALFEKSLK”, for which the protein production entry was “failed”.

“MKKILVHGVKEKTPLGFCDVPRKNLLDFLRDMKSISVPNEPRYKPLRKIHQAASDGDTERLQRMISLGKHSVHDRDFKERTALHFACACGQVEVVSILLRNNCDIDAADMNFITPLMKAVQNWTYECVCILLKHGADPNRKDKNGNTSLHYAVSEDNQTLAKCLLKYSANMEQKNKDGFTPLLLALKENKIEMAKFLVKMGANIHVFDDMRRNTLLYAIRWDSKDMVNLLLDEGIDFFFRDVFGWTALRYAIEGTSKGSREILMNYDEMLRRKNKDGIPEYKFFEDKSLDKHPNNPTSGCTFPKSNENACKFDDELDISKYVLGTCPNNIHGAGEEGDKSETKKAADVQVWTNPTLKSSTKGKVPNLNEVGTMTESHHFIKESDLEIESLVETFSYDNEDKQSMSDDGHFSGTTPKWCQNDTNRKITVQDCMYPNLKSPTEGKIPTRSKAGKMAESAHFIIESDLEIESLEETVSCDSEDKQLLV”: the protein production entry is listed as “failed”.

With “MKKIRLSKFIKMIVVILFLISVAASFYFFHVAQVRDDKSFISNGQRKPGNSLYAYDKSFDKLLKQKIEMTNQNIKQVAWYVPAVKKTHKTAVVVHGFANSKENMKAYGWLFHKLGYNVLMPDNIAHGESHGQLIGYGWNDRENIIKWTEMIVDKNPSSQITLFGVSMGGATVMMASGEKLPSQVVNIIEDCGYSSVWDELKFQAKEMYGLPAFPLLYEVSTISKIRAGFSYGQASSVEQLKKNNLPALFIHGDKDNFVPTSMVYDNYKATAGKKELYIVKGAKHAKSFETEPEKYEKRISSFLKKYEK”, the protein production result is listed as “failed”.

“MKKISVKFNQKQIFFGIIGLLLLGIIGIFAYKLNEYFSEPVIKAKSINLDASPSPKSKIIERLKKDQKIKVLKKNNNTDWWQVEIGSQKGWVASWLIQKKNYNAKNAGRLAEATIVLDPGHGGVDSGTQASNGAMEKTYTLRTALKVYKLLKAKNVHVIMTRHTNKTVALASRPALSNRVKANIYISFHFNSAGEQNAAEGYEVFKYNHNANSFASTIDKQFNNLPLYNRGVSFGNFEVLRDNKRPAILVEMGFMDSDYDFSYIQKSSYQQKVANDVTKSLTSYFN”: the protein production result is “failed”.

In the case of “MKKKFIITFILSLALFAGIFWVANKVLDIMELTSKVEFVGSDLGEGNNIEQRVENELLFLVLGLDSDDFSGATTEQNRTDTMILCKVNFDTGKIDILSIPRDSRVMVNGKLDKINHAHHFGGLKLAMKTTRDFLNLDIDYYVRVNFFSVKDIVDALGGVEVDVPVQVDVAEDNVHLKPGKQVLNGKQALQFARFRAGYKEGDVGRVKAQQILIKALVKELTKAKNIAKIPEILEVVKKTVNTNIPFSTIAKLSLKVNNLSEDKINTQIVPGESAYINNTSYFIPDRSKLNAIVKEMFSDYLLNKSGSSQVDTDKNKNNTNTKNNNNKNNNTNNRNNSNNNKNNNNKNNKNNKNNNR”, the protein production result is “failed”.

As to “MKKKILIPVFASVMALSVSSIVNADEVNDSSQNKDDKTNTELNLGEYKEVKYKVAKIKDGVAIKIREEGQVQNIAYSGDEFTVLGTQGEWVKVKVEDGEGWLATRYVDISEGVGYTNADKVNLRKDKSESSEVIEELEKGSSLLVLEDNGDWLKVKDGETEGYVKSSYISDKAPVIEEPQVNPSIDQNVDSTNNNQQNNANTNQQNNNSNVPTANSNAVQAVLNLAYSKQGCPYVWGAEGPNTFDCSGFTQYVYRNAVGKNIPRTSKAQSKYGQTVSKANLQPGDLVFFTTNGSGSVSHVGIYVGGGNMIHSPSTGKTVSVTSINSSYYTARFVTAKRIL”, the protein production entry was “failed”.

“MKKKLGLLAMVVALMAIATGCSETGQPITSKSTGIWNEYFVYPLSQLITYFADLFNSNYGLAIVITTLIIRFALLPLMIKQTKSTKAMQALQPEMVKLKEKYSSKDQATQQKLQQEMMQLYQKNGVNPLAGCLPIFVQMPILFAFYHAIMRTAEIKQHSFLWFDLGHADPFYILPVVAAITTFIQQKLAMAGTAGQNPQMAMMLWLMPIMILIFAINFPAALSLYWVVGNIFGIAQMYFIKGPEIKASKAGKAGGSSK”: the protein production result was “failed”.

Regarding “MKKLAIVIPAYKVDFFETVLFSLAQQTCKDFTVYIGEDCSRDDFKSLIEQYSKQLDIVYRRFEVNFGGHDLVAQWNRCIQLTQNEPWLWLFSDDDIMGPRCVEYFFNTIAIDNGAFDIYHFDVKIVDCENQIVRIPTVYPSVIDSETFYRRKASARLDSFVVEYIFLRDIYNCTGGFQHFDLAWGSDIATWVKIGADKGIKTISGDYVYWRKSKKNITPNMDNKMVLRKLTADIEFTHWINEFFHKSSVYRFTKYAFFRLVVHYSQAISKSQIRLLLDKAVGKNIISFNDAFIINWTYRFIQLAKRVKDVLYFLEHHHHHH”, the protein production entry is listed as “not failed”.

On to “MKKLDASTAVSLTGMPELERIVESLCTPESYEAVYHQSLHGSPMPSLEALTELMARLRAALFPGYFGASNIVLESMRYHLAANLDSIYRILAEQVRRGGCFACADYATDCQNCESHSQETAMEFMRALPRIRQLLATDVKAAYEGDPAAKSPGETIFCYPSIYAMIHHRIAHELYRLDVPVIPRIISEMAHSRTGIDIHPGATVGEEFFIDHGTGVVIGETCIIGRGCRLYQGVTLGALSFPKDGGGALIKGIPRHPILQDGVTVYAGATILGRVTIGAGAIVGGNVWVTHDVAPGAKVVQQKSSPPAAEDRMVGTKNGTPKA”, for which the protein production entry is “failed”.

In the case of “MKKLIFLTLSIVSFNNYAVDFVYRVDSTPPDVIFRDGFSLLGYNRNFQQFISGRSCSGGSSDSRYIATTSSVNQTYAIARAYYSRSTFKGNLYRYQIRADNNFYSLLPSITYLETQGGHFNAYEKTMMRLQREYVSTLSILPENIQKAVALVYDSATGLVKDGVSTMNASYLGLSTTSNPGVIPFLPEPQTYTQQRIDAFGPLISSCFSIGSVCQSHRGQRADVYNMSFYDARPVIELILSK”, the protein production entry was “failed”.

“MKKLLTKGQIAILVIFSVLIIDQVIKIWIKTHMYWHESIRITDWFYIYFTENNGMAFGMELFGKLFLTTFRIVAVGLIGWYLYKIVKRGLKTGYIICVSLILTGALGNIIDSVFYGVIFNESTHSQIASFMPDGGGYSTWFYGKVVDMFYFPIIDTNWPTWMPFVGGEHFIFFSPIFNFADAAISCGIIALLLFYSKYLNDSYHHSVTKK”: the protein production entry is reported as “failed”.

With “MKKLLVIRNDKIGDFMLCFPAFMMLKQSMPNIEITALVPNYTAPLAELCPAIDHLIIDNTDKQDPIAFKQVQQAVQNGQFDAVICFVSSWYNAKLTWQSGIRYRLAPATKLFQFLYNHRLTQRRSQSIKAESEYNLDLARAFLIDHHMMPVEPQLEHHHHHH”, the protein production entry was “not failed”.
